T1: bovine LPL (bovine, UniProt P11151 29-478, limits assumed)
T1 sequence (looked up): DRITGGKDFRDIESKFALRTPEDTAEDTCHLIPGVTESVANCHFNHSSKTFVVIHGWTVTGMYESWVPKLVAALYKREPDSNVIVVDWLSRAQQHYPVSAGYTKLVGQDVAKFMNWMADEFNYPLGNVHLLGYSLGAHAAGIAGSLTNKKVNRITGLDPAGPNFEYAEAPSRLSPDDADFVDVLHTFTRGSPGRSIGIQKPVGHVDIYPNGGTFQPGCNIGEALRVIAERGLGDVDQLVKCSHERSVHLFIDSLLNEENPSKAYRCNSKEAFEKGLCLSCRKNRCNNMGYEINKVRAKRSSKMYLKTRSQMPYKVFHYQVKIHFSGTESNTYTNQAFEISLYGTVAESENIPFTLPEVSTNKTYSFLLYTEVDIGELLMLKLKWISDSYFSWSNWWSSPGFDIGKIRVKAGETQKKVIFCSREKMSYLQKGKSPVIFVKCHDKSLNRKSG

T2: hANGPTL3(17-169)-mFc (human)
T2 construct: also called N-terminal coiled-coil domain of hANGPTL3 with a C-terminal mouse Fc fusion
T2 chain: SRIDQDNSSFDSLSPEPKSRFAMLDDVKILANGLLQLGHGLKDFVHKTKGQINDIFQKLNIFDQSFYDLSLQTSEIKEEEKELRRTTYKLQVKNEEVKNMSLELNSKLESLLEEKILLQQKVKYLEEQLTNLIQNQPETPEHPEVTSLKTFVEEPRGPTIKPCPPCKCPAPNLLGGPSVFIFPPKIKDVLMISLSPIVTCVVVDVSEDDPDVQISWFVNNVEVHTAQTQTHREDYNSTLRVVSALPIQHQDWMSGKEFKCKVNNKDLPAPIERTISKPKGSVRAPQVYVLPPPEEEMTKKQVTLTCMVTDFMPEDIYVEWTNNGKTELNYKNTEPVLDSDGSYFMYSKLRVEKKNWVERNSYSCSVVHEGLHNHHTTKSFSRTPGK

B1: hANGPTL3(17-460)-His (other)
chain: SRIDQDNSSFDSLSPEPKSRFAMLDDVKILANGLLQLGHGLKDFVHKTKGQINDIFQKLNIFDQSFYDLSLQTSEIKEEEKELRRTTYKLQVKNEEVKNMSLELNSKLESLLEEKILLQQKVKYLEEQLTNLIQNQPETPEHPEVTSLKTFVEKQDNSIKDLLQTVEDQYKQLNQQHSQIKEIENQLRRTSIQEPTEISLSSKPRAPRTTPFLQLNEIRNVKHDGIPAECTTIYNRGEHTSGMYAIRPSNSQVFHVYCDVISGSPWTLIQHRIDGSQNFNETWENYKYGFGRLDGEFWLGLEKIYSIVKQSNYVLRIELEDWKDNKHYIEYSFYLGNHETNYTLHLVAITGNVPNAIPENKDLVFSTWDHKAKGHFNCPEGYSGGWWWHDECGENNLNGKYNKPRAKSKPERRRGLSWKSQNGRLYSIKSTKMLIHPTDSESFEHHHHHHHHHH
B2: mANGPTL3(17-455)-His (other)
chain: SRVDPDLSSFDSAPSEPKSRFAMLDDVKILANGLLQLGHGLKDFVHKTKGQINDIFQKLNIFDQSFYDLSLRTNEIKEEEKELRRTTSTLQVKNEEVKNMSVELNSKLESLLEEKTALQHKVRALEEQLTNLILSPAGAQEHPEVTSLKSFVEQQDNSIRELLQSVEEQYKQLSQQHMQIKEIEKQLRKTGIQEPSENSLSSKSRAPRTTPPLQLNETENTEQDDLPADCSAVYNRGEHTSGVYTIKPRNSQGFNVYCDTQSGSPWTLIQHRKDGSQDFNETWENYEKGFGRLDGEFWLGLEKIYAIVQQSNYILRLELQDWKDSKHYVEYSFHLGSHETNYTLHVAEIAGNIPGALPEHTDLMFSTWNHRAKGQLYCPESYSGGWWWNDICGENNLNGKYNKPRTKSRPERRRGIYWRPQSRKLYAIKSSKMMLQPTTHHHHHHHHHH

How the values were obtained:
bovine LPL = target: T1, bovine LPL; assay: cell-based or functional assay
hANGPTL3(17-169)-mFc = target: T2, hANGPTL3(17-169)-mFc; assay: SPR Biacore, antigen captured, 25C, pH 7.4, HBS-EP
Experimental: (§1) All kinetic binding experiments were performed at 25° C. or 37° C. on a BIACORE™ T200 label-free molecular interaction instrument (GE Healthcare) using a CM5 sensor chip. Briefly, an antigen capture surface was generated by covalently coupling either an anti-mouse IgG-specific antibody (anti-mFc; GE Healthcare; catalog #BR-1008-38) or an anti-pentahistidine-specific antibody (Qiagen; catalog #34660) to the surface of a CM5 sensor chip using a standard amine coupling method.

hANGPTL3(17-460)-His [1] = target: B1; assay: SPR Biacore, antigen captured, 25C, pH 7.4, HBS-EP
Experimental: as §1

hANGPTL3(17-460)-His [2] = target: B1; assay: SPR Biacore, antigen captured, 37C, pH 7.4, HBS-EP
Experimental: as §1

mANGPTL3(17-455)-His = target: B2; assay: SPR Biacore, antigen captured, 37C, pH 7.4, HBS-EP
Experimental: as §1

Row | EC50 (nM), inhibition of LPL activity (bovine LPL) [nM] | Kd (hANGPTL3(17-169)-mFc) [nM] | koff (hANGPTL3(17-169)-mFc) [s⁻¹] | kon (hANGPTL3(17-169)-mFc) [M⁻¹ s⁻¹] | t1/2 (hANGPTL3(17-169)-mFc) [min] | Kd (hANGPTL3(17-460)-His [1]) [nM] | koff (hANGPTL3(17-460)-His [1]) [s⁻¹] | kon (hANGPTL3(17-460)-His [1]) [M⁻¹ s⁻¹] | t1/2 (hANGPTL3(17-460)-His [1]) [min] | Kd (hANGPTL3(17-460)-His [2]) [nM] | koff (hANGPTL3(17-460)-His [2]) [s⁻¹] | kon (hANGPTL3(17-460)-His [2]) [M⁻¹ s⁻¹] | t1/2 (hANGPTL3(17-460)-His [2]) [min] | binding result (mANGPTL3(17-455)-His) | Binder
1 | 625 |  |  |  |  |  |  |  |  |  |  |  |  |  | MfANGPTL3(17-170)-mmH (other) SRIDQDNSSFDSVSPEPKSRFAMLDDVKILANGLLQLGHGLKDFVHKTKGQINDIFQKLNIFDQSFYDLSLQTSEIKEEEKELRRTTYKLQVKNEEVKNMSLELNSKLESLLEEKILLQQKVKYLEEQLTNLIQNQPATPEHPEVTSLKSFVEKEQKLISEEDLGGEQKLISEEDLHHHHHH
2 | 91 |  |  |  |  |  |  |  |  |  |  |  |  |  | hANGPTL3(17-170)-His (other) SRIDQDNSSFDSLSPEPKSRFAMLDDVKILANGLLQLGHGLKDFVHKTKGQINDIFQKLNIFDQSFYDLSLQTSEIKEEEKELRRTTYKLQVKNEEVKNMSLELNSKLESLLEEKILLQQKVKYLEEQLTNLIQNQPETPEHPEVTSLKTFVEKHHHHHH
3 |  | 5.95 | 0.00272 | 457000 | 4 | 5.62 | 0.00247 | 440000 | 5 | 0.986 | 0.00193 | 1.96e+06 | 6 | no binding | H4H1248P (antibody, IgG4, V domains shown) VH: QVQLVESGGGVVQPGRSLRLSCAASGFTFSSYGMHWVRQAPGKGLEWVAVISYDGSNKYYADSVKGRFTISRDNSKNTLYLQMNSLRAEDTAVYYCAKVGATTFYYYYGMDVWGQGTTVTVSS VL: DIQMTQSPSSVSAFVGDRVTITCRASQGISSWLAWYQQKPGKAPKLLIYAASSLQSGVPSRFSGSGSGTDFTLTISSLQPEDFATYYCQKANSFPFTFGPGTKVEIK
4 | 50 |  |  |  |  |  |  |  |  |  |  |  |  |  | B1
5 |  | 0.0463 | 5.92e-05 | 1.28e+06 | 195 | 0.0968 | 9.26e-05 | 957000 | 125 |  |  |  |  |  | H4H1282P (antibody, IgG4, V domains shown) VH: EVQLVQSGGGVVQPGRSLRLSCAASGFTFSNYGMHWVRQAPGKGLEWVAVVWYDGDNKYYADSVKGRFTISRDNSKNTLYLQMNSLRAEDTAVYYCARDIITSRPTLDYWGQGTLVTVSS VL: DIQLTQSPSFLSASVGDRVTITCWASQGINSYLAWYQQKPGKAPKLLIYPASTLQSGVPSRFSGSGSGTEFTLTISSLQPVDFATYYCQQLNSYPLTFGGGTKVEIKR
6 |  | 0.0611 | 3.92e-05 | 641000 | 295 | 0.137 | 4.12e-05 | 301000 | 280 |  |  |  |  |  | H4H1296P (antibody, IgG4, V domains shown) VH: QVQLVESGGVSVKPGGSLRLSCAASGFTFSDYYMSWIRQAPGKGLEWVSYIGSSGTNDYYADSVKGRFTISRDNAKNSLYLQMDSLRAEDTAVYYCARDSSQMGFDYWGQGTLVTVSS VL: DIQMTQSPSSLSASVGDRVTITCRASQNIINFLNWYQQRPGKAPQLLIYVAASLQSGVPSRFTGSGYGTDFTLTISSLQPEDFATYYCQQTYTNPLTFGGGTKVEIKR
7 |  | 0.226 | 7.95e-05 | 352000 | 145 | 0.197 | 7.35e-05 | 373000 | 157 |  |  |  |  |  | H4H1295P (antibody, V domains shown) VH: QVQLVQSGPEVKKPGASVRVSCKASGYLSDFIITWVRQAPGQGLEWMGWISTYSGDTDSAPKFQGRVTMTTDTSTTTVFLELRSLRSDDTAVYYCARGRLFDYWGQGTLVTVSS VL: not shown
8 |  | 0.721 | 0.000835 | 1.16e+06 | 14 | 1.47 | 0.00189 | 1.29e+06 | 6 |  |  |  |  |  | H4H1268S (antibody, IgG4, V domains shown) VH: QVQLQQSGPGLVKPSQTLSLTCAISGDSVSSNSPAWNWIRQSPSRGLEWLGRTYYRSKWYNDYAVSVRGRITINPDTSNNQFSLHLNSVTPEDTAMYYCARDKGLTARPTYFDYWGQGTLVTVSS VL: DIQMTQSPSTLSASVGDRVTITCRASQSINYWLAWYQQKPGKAPKPLIYKASSLESGVPSRFSGSGSGTEFTLTISSLQPDDFTTYYCQQYNSYSPTFGQGTKLEIKR
9 |  | 6.23 | 0.00422 | 677000 | 3 | 2.47 | 0.00126 | 508000 | 9 | 0.381 | 0.00181 | 4.74e+06 | 6 | no binding | H4H1263S (antibody, IgG4, V domains shown) VH: QVQLVQSGGGVVQPGRSLRLSCAASGFTFSTYGMHWVRQAPGKGLEWMAVISFDRGNKYYADSVKGRFTISRDNSKNTLYLQMNSLRAEDTAVYYCAKGGGSGTFYYYYGMDVWGQGTTVTVSS VL: DIQMTQSPSSVSASVGNRVTITCRASQGISSWLAWYHQKPGKVPKVLIYAASSLQSGVPSRFSGSGSGTDFTLTISSLQPEDFATYYCQQANSFPFTFGPGTKVEIKR
10 | 33 |  |  |  |  |  |  |  |  |  |  |  |  |  | B2

Source: patent US20150197564A1 (Regeneron, published 2015)
